The test deals with recombinant human BCMA protein conjugated to IgG1 Fc-PE (human) (UniProt Q02223). Kind of test: flow cytometry, CAR T cells stained with BCMA-IgG1 Fc-PE.
Sequence of UniProt Q02223 (Q02223 1-54 limits assumed): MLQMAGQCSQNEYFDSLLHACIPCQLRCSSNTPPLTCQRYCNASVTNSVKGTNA

B1: humanized anti-BCMA-10.2 CAR (protein)
chain: DIVLTQSPASLAVSLGERATINCRASESVSVIGAHLIHWYQQKPGQPPKLLIYLASNLETGVPARFSGSGSGTDFTLTISSLQAEDAAIYYCLQSRIFPRTFGQGTKLEIKGSTSGSGKPGSGEGSTKGQVQLVQSGSELKKPGASVKVSCKASGYTFTDYSINWVRQAPGQGLEWMGWINTETREPAYAYDFRGRFVFSLDTSVSTAYLQISSLKAEDTAVYYCARDYSYAMDYWGQGTLVTVSSAAADTGLYICKVELMYPPPYYLGIGNGTQIYVIDPEPCPDSDFLLWILAAVSSGLFFYSFLLTAVSKRGRKKLLYIFKQPFMRPVQTTQEEDGCSCRFPEEEEGGCELRVKFSRSADAPAYQQGQNQLYNELNLGRREEYDVLDKRRGRDPEMGGKPRRKNPQEGLYNELQKDKMAEAYSEIGMKGERRRGKGHDGLYQGLSTATKDTYDALHMQALPPR
B1: the T cells stained with BCMA-IgG1 Fc-PE (CAR surface expression), Donor 1 came out at 86.2.

Source of the values: patent US20170226216A1.
